Experimental data: PMC4517869, “EIN3 and ORE1 Accelerate Degreening during Ethylene-Mediated Leaf Senescence by Directly Activating Chlorophyll Catabolic Genes in Arabidopsis”

Experiments:
[1] = target: T1, MBP-N-EIN3 (Arabidopsis thaliana, UniProt O24606 1-314); experiment: EMSA; LightShift Chemiluminescent EMSA kit binding buffer (composition, pH, temperature not given); 400 ng protein, 12.5 fmol 5'-biotin probe, 1 ug poly(dI-dC), 15 min; conditions: protein: recombinant; tags: N-terminal MBP (pMAL-c5g); chain copies: 2; label: 5'-biotin; blunt
T1 sequence: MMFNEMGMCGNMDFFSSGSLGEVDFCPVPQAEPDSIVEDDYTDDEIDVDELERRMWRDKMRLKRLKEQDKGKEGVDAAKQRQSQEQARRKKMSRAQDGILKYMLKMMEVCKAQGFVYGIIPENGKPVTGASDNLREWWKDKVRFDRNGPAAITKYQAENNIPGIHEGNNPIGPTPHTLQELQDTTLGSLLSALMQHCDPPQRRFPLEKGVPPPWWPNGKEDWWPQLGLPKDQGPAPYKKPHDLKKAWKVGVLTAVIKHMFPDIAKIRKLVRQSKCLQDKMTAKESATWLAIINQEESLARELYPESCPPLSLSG

[2] = target: T1, MBP-N-EIN3; experiment: competition; unlabeled 800-fold excess vs NYC1-EBS; LightShift Chemiluminescent EMSA kit binding buffer (composition, pH, temperature not given); 400 ng protein, 12.5 fmol 5'-biotin probe, 1 ug poly(dI-dC), 15 min; conditions: protein: recombinant; tags: N-terminal MBP (pMAL-c5g); chain copies: 2; blunt
[3] = target: T2, MBP-ORE1 (Arabidopsis thaliana, UniProt Q9FKA0 1-285); experiment: EMSA; LightShift Chemiluminescent EMSA kit binding buffer (composition, pH, temperature not given); 400 ng protein, 12.5 fmol 5'-biotin probe, 1 ug poly(dI-dC), 15 min; conditions: protein: recombinant; tags: N-terminal MBP (pMAL-c5g); chain copies: 2; label: 5'-biotin; blunt
T2 sequence: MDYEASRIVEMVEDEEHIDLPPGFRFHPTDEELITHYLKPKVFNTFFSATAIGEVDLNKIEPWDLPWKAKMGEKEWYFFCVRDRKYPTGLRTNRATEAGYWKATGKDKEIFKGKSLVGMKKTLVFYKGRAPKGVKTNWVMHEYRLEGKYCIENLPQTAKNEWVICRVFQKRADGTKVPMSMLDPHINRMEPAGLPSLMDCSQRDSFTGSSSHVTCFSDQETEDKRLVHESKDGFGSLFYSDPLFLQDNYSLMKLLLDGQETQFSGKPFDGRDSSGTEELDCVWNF

[4] = target: T1, MBP-N-EIN3; experiment: competition; unlabeled 800-fold excess vs ORE1-EBS; LightShift Chemiluminescent EMSA kit binding buffer (composition, pH, temperature not given); 400 ng protein, 12.5 fmol 5'-biotin probe, 1 ug poly(dI-dC), 15 min; conditions: protein: recombinant; tags: N-terminal MBP (pMAL-c5g); chain copies: 2; blunt
[5] = target: T1, MBP-N-EIN3; experiment: competition; unlabeled 800-fold excess vs NYE1-EBS; LightShift Chemiluminescent EMSA kit binding buffer (composition, pH, temperature not given); 400 ng protein, 12.5 fmol 5'-biotin probe, 1 ug poly(dI-dC), 15 min; conditions: protein: recombinant; tags: N-terminal MBP (pMAL-c5g); chain copies: 2; blunt
[6] = target: T1, MBP-N-EIN3; experiment: competition; unlabeled 800-fold excess vs PAO-EBS; LightShift Chemiluminescent EMSA kit binding buffer (composition, pH, temperature not given); 400 ng protein, 12.5 fmol 5'-biotin probe, 1 ug poly(dI-dC), 15 min; conditions: protein: recombinant; tags: N-terminal MBP (pMAL-c5g); chain copies: 2; blunt

B1: NYE1-EBS (dsDNA)
DNA 1: GTTTAGGTAAGCAATACGAACCTGGATAAACGAAATGC
DNA 2: GCATTTCGTTTATCCAGGTTCGTATTGCTTACCTAAAC
Q: Does B1 bind [1]?
A: Result: binds

B2: NYC1-EBSm (dsDNA)
DNA 1: TAATTTACTCAAAAAAAAAAGTAATGAC
DNA 2: GTCATTACTTTTTTTTTTGAGTAAATTA
Q: Does B2 bind [2]?
A: Result: no binding

B3: NYC1-OBS (dsDNA)
DNA 1: GAGGTTGCTGTAACGTGTGGCCATCACAC
DNA 2: GTGTGATGGCCACACGTTACAGCAACCTC
Q: Does B3 bind [3]?
A: Result: binds

B4: ACS2-OBS (dsDNA)
DNA 1: GGAATTATGTGGAGGACGTACGTTTATACATGTGCAGACTACAAC
DNA 2: GTTGTAGTCTGCACATGTATAAACGTACGTCCTCCACATAATTCC
Q: Does B4 bind [3]?
A: Result: binds

B5: NYE1-OBS (dsDNA)
DNA 1: GTGGTTTCAGTGTACGAACACGCAAGAACTC
DNA 2: GAGTTCTTGCGTGTTCGTACACTGAAACCAC
Q: Does B5 bind [3]?
A: Result: binds

B6: PAO-EBS (dsDNA)
DNA 1: GCTTGAAATAAGATTCATCAGAAGAGTA
DNA 2: TACTCTTCTGATGAATCTTATTTCAAGC
Q: Does B6 bind [1]?
A: Result: binds

B7: ORE1-EBSm (dsDNA)
DNA 1: ATACTTTACAAGGGTAATGCATGCATAC
DNA 2: GTATGCATGCATTACCCTTGTAAAGTAT
Q: Does B7 bind [4]?
A: Result: no binding

B8: PAO-OBS (dsDNA)
DNA 1: ATTGCATACTTGCACGCAATCTCTTCTTC
DNA 2: GAAGAAGAGATTGCGTGCAAGTATGCAAT
Q: Does B8 bind [3]?
A: Result: binds

B9: NYE1-EBSm (dsDNA)
DNA 1: GTTTAGGTAAGCAATTTTTTTTTGGATAAACGAAATGC
DNA 2: GCATTTCGTTTATCCAAAAAAAAATTGCTTACCTAAAC
Q: Does B9 bind [5]?
A: Result: no binding

B10: PAO-EBSm (dsDNA)
DNA 1: GCTTGAAATAAAAAAAAACAGAAGAGTA
DNA 2: TACTCTTCTGTTTTTTTTTATTTCAAGC
Q: Does B10 bind [6]?
A: Result: no binding

B11: NYC1-EBS (dsDNA)
DNA 1: TAATTTACTCAGGTACATAAGTAATGAC
DNA 2: GTCATTACTTATGTACCTGAGTAAATTA
Q: Does B11 bind [1]?
A: Result: binds

B12: NOL-OBS (dsDNA)
DNA 1: AGCTTGCTCGCTTACGCAACTCTCTCTCT
DNA 2: AGAGAGAGAGTTGCGTAAGCGAGCAAGCT
Q: Does B12 bind [3]?
A: Result: binds
